Reference: the nanobody polyreactivity screen of Harvey et al. (2022)

Assay: yeast display, Sf9 membrane polyspecificity reagent, FACS + sequencing; frameworks hold sequencing errors
How it was run: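 Sorting gates, low and high (top ~1%), were placed on anti-HA fluorescence to track expression and on streptavidin fluorescence to track reagent binding. A clone's polyreactivity label is taken from the gate it came out of. The reagent was 10% biotinylated, detergent-solubilized Sf9 membrane, applied for 1 hour at 4 °C to galactose-induced yeast display cells.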

| Sequence | polyreactivity (PSR sort gate) |
| --- | --- |
| QVQLVESGGGLVQAGGSLRLSCAASGFTFWQYDMGWYRQAPGKERELVAAITSSGSRTYYADSVKGRFTISRDNAKNTVYLQMNSLKPEDTAVYYCNTYLRYWVSYSYDYWGQGTQVTVSS | high polyreactivity |
| QVQLVESGGGLVQAGGSLRLSCAASGRTFYRKAMGWYIQAPGKEREFVAVISVSGGSTYYADSVKGRFTISRDNAKITVYLQMNSLKPEDTAVYYCAKRGPVRKTAYDYWGQGTQVTVSS | low polyreactivity |
| QVQLGESGGGLVQAGGSLRLSCAASGSIFRGYAMGWYRQAPGKGRELVAAISWSGASTYYADSVKGRFTISLDNAKNTVYLQMNSLKPEDTAVYYCAAVQWTGYPFDYWGQGTQVTVSS | high polyreactivity |
| QVQLVESGGGLVQAGGRLRLSCAASGRIFKSNAMGWYRQAPGKERELVATIDVIGTSTYYADSVKGRFTISRDNAKNTVYLQMNSLKPEDTAVYYCAAVGWGGWSDSYDYWGQGTQVTVSS | low polyreactivity |
| QVQLVESGGGLVQAGGRLRLSCAASGRIFLFYDMGWYRQAPGKERELVATISFRRGSTYYADSVKGRFTISRDNAKNTVYLQMNSLKPEDTAVYYCAKQNKRGYSTSAYYYWGQGTQVTVSS | low polyreactivity |
| QVQLVESGGGLVQAGGSLRISCAASGSTINRYAMGWYRQAPWKERELVAAINWRGSRTYYADSVKGRFTISRDNAKNTVYLQMNSLKPEDTAVYDCAASLGANGFQGRMYYWGQGTQVTVSS | low polyreactivity |
| QVQLVESGGGLVQAGGSLRLSCAASGSTFYWYAMGWYRQAPGKERELVAVITVRGGSTYYADSVKGRFTISRDNAKNTVYLQMNSLKPEDTAVYYCAAEPTSYLYKYWYDYWGEGTQVTVSS | low polyreactivity |
| QVQLVESGGCLVQAGGSLRLSCAASGRTFYFYTMGWYRQAPGKERQLVATIRWSAGSTYYADSVKGRFTISRDNAKNTVYLQMNSLKPEDTAVYYCNADPYVYSSWQYGYWGQGTQVTVSS | high polyreactivity |
| QVQLVESAGGLVQAGGSLRLRCAASGRIFTHNAMGWYRQAPGKERELVAAITSGGRTTYADSVKGRFTISRDNAKNTVYLQMNSLKPEDSAVYYCNADTGLGSLDFDKRDYWGQGTQVTVSS | low polyreactivity |
| QVQLVESGGGLVQAGGSLRLSCAASGRIFWDNAMGWYRQAPVKERELVAAISGGASTYADSVKGRFTISRDNAKNTVYLQMNSLKAEDTSVYYCYAFQSPVEEEYYWGQGTQVTVSS | low polyreactivity |
| QVQLVESGGGLVQAGGSLRLICAASGGIFVYYAMGWYRQAPGKERELVAAISSGGTTNYADSVKGRFTISRDNAKNTVYLQMNSLKPEDTAVYYCAIYVSWPLYYYWGQCTQVTVSS | low polyreactivity |
| QVQLVESGGGLVQAGGSLRLSCAASGSIFYTYAMGWYRQAPGKERELVADISSRGGSTYYADSVKGRFTISRDNAKNTVYLQMNSLKPEDTAVYYCNAPQGFVWRYSSWGPYDYWGQGTQVTVSS | high polyreactivity |
| QVQLVESGGGLVQAGGSLRLSCAASGGIFPSYAMGWYRQAPGKERELVAAITRGASTYADSVKGRFTISRDNAKNTVYLQMNSLKPEDTAVYYCAADTKRRSIRYDYWGQGTQVTVSS | high polyreactivity |
| QVQLVESGGGIVQAGGSLRLSCAASGSNFTAYDMGWYRPAPGKDRELVAALNVSAGTTYYADSVKGRFTISRDHAKNTVYLQMNSLKPEDTAVYYCATYRSPTPYTRENIYAYWGQGTLVTVSS | low polyreactivity |
| QVQLVESGGGLVQAGGSLRLSCAASGFTFVYYAMGCYRQAPGKERELVAAISRSGATTFYADSVKGRFTISRDNAKNTVYLQMNSLKPEDTAVYYCAVDSYAYYYGYWGQGTQVTVSS | high polyreactivity |
| QVQLVESGGGLVQAGGSLRLSCAASGYIFKYYAMGWYRQAPGKERELVTAIRSNDDSTYYADSVKGRFTISRDTAKNTVYLQMNSLKPEDTAVYYCAAATYGTRLRRYYYWGQGTQVTVSS | high polyreactivity |
| QVQLVESGGGLVQAGGSLRLSCAASGFIFRYYAMGWYIQAPGKERELVATITRSGGSTYYADSVKGRFTLSRDNAKNTVYLQMNSLKPEDTAVYYCAADIYWYRGYGYWGQRTQVTVSS | high polyreactivity |
| QVQLVESGGGLVQAGGSLRLSCAASGSTFDFNVMGWYRQAPGKERELVAAISSGSSTYYADSVKGRFTISRDNAKNTVYLQMNSLKPEDTAVYYCARRYQLVRTRYYYWGQGTQVTVSS | high polyreactivity |
| QVQLVESGGGLVQAGGSLRLSCAASGFTFFQYAKGWYRQAPGKERELVAAISARGGRTYYADSVKGRFTISRDNAKNTVYLQMNSLKPEDTAVYYCAKRTRTIQGHYDYWGQGTQVTVSS | high polyreactivity |
| QVQLVDSGGGLVQAGGSLRLSCAASGYTFVPYAMGWYRQAPGKERELVAAISSSGGDTYYADSVKGRFTISRDNAKTTVYLQLNSLKPEDTAVYYCNTGVYVWQYWYYGFDYWGQGTQVTVSS | low polyreactivity |
| QVQLVQSGGGFVQAGGSLRVSCAASGRTFGVYAMGWYRQAPGKEREFVAAISYSGGRTYYADSVKGRFTISRDNAKNTVYLQMNSLKPEDTAVYSCNARAFPYYRRFDYWGQGTQVTVSS | high polyreactivity |
